Results reported in the RNAGym collection of RNA variant scans (doi:10.1073/pnas.2313332121).

B1: TPR t1 (parent)
chain: GACCAAUCUGCCCUCAGAGCUCGAGAACAUCUUCGGAUGCAGAGGAGGCAGGCUUCGGUGGCGCGAUAGCGCCAACGUCCUCAACCUCCAAUGCAUCCCACCACAUGAUGAUGCCUGAAGAGCCUUGGUUUUUUG

Variants of: B1
Test: polymerase ribozyme fitness, log enrichment relative to wild type (log ratio); higher = more active; in vitro selection for triplet polymerase activity
How it was run: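 Mutant libraries of both subunits of a heterodimeric triplet polymerase ribozyme were PCR-built, transcribed, and selected once in triplicate, with frozen incubation at −7 °C and capture of gel-excised extended constructs on streptavidin beads before RT-PCR. Illumina sequencing of input and output libraries was filtered to genotypes with ≥10 input reads and ≥1 read per output. Fitness is the logarithm of genotype enrichment over wild-type enrichment, using inverse-variance-weighted replicate averages. The logarithm is base 2.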

Variant | polymerase ribozyme fitness (log ratio)
C11U U54G C73U C97U G120C | 0.506
C12A A18U C56U A68C C79U C115U A118C U131C | -6.43
C11U G51C C85U | -4.53
C11U C40G C53U C62U C73G C79A C86U | -4.3
C12A A29C A84C | -3.21
C11U G23A | -5.77
C12A A16U C56G C124A | -0.00308
C11U G19U C20A C104U G120U | -4.29
C11U G69A A84C | -2.03
C12A A27C C40G G63C G120A | -2.65
C11U C72U | -0.485
C11U U96A | -1.94
C11U U54G G61U U106A G113C C114A | -6.66
C11U C101U | -0.727
C11U G17A C64U A83C A84C A119G | -0.999
C11U C40U | -0.173
C11U C104U | -1.3
C11U C56G | -1.1
C11U C56A | -0.322
C11U C82G C102A U112A G120C U125G | -5
C11U U32A G93A A100U A105G | -4.99

Variant | polymerase ribozyme fitness (log ratio)
C11U U87A | 0.703
C12A A16C | -2.4
C11U G61A A105G U106A | -0.0724
C11U C82U | -1.45
C11U U78A U87A C99U C115A | -4.73
C11U G48C | -1.61
C11U C79G G93U | -3.61
C11U G120A U129G | -1.66
C12A A18G C82A C101A U130G | -7.19
C11U U125G | -1.31
C11U U125A | -0.822
C11U C56A C82U C86G | -1.73
C11U G58A G69U | -0.296
C11U G42U | -2.17
C11U C53G C56U U87C G117U G120A G122A | -3.01
C11U U92C G127A | -3.76
C11U G52A C56U C72G U109G | -5.83
C11U G42U C101A | -3.62
C11U C53A G69U G93C C94U | -0.279
C12A A18C U81G G120A | -5.16
C11U G117C | -2.78

Variant | polymerase ribozyme fitness (log ratio)
C11U G117A | -2.36
C11U G117U | -2.72
C11U G45C G57A G61U U132C | -3.81
C11U C53U | 0.00138
C11U C53A | -0.286
C11U C53G | -0.654
C11U C115A | -0.908
C11U G42C C64U C94U | -1.83
C11U U32C C123G | 1.18
C11U G60A U78C A95U U112A U116G | -3.18
C11U G23A G61A G113U | -6.08
C11U U78C C94U | -1.61
C11U G52A C94G C104A A121G | -2
C11U G36A C101U | -4.98
C11U C64A | -4.93
C12A A26U | -3.83
C11U U33G A121C | -4.56
C11U C114A | -1.22
C12A A26U G44C C102U C123G | -7.51
C11U G77A | -1.92
C12A A27G G71U G93A | -6.11

Variant | polymerase ribozyme fitness (log ratio)
C11U U133G | -0.78
C11U G44C A46U | -2.61
C11U C79U U81C C94A G120U | -4.75
C12A A37G | -0.967
C11U U96A G110U | -2.95
C11U G47U C62U G71U C82A A95U | -2.79
C11U G63C | -1.64
C11U G61U U96A | -1.65
C11U G19A C49U C56U A66U C114U | -2.83
C11U G45C U81G | -4.91
C11U G39U A43G | -3.16
C11U U21C C82G | -0.576
C12A A16U A50U A74U | -5.14
C11U G35A A37U C124A U132A | -4.07
C11U G69A A84C C123U | -0.562
C11U C28A | -3.2
C11U C28U | -1.61
C11U G47C G71U U92G G113C | -5.32
C11U G17A A46G G57C C72U C115A G120C U134A | -0.588
C11U C40U G120A | -0.013
C12A A16C A29U G47A G61A | -3.43
